Measured values: publication doi:10.1101/591263

The substances below were run on dSpCas9-GFP (Streptococcus pyogenes) (assay: MST). Settings: MST: 20 mM HEPES pH 7.5, 150 mM KCl, 1 mM DTT, 10 mM MgCl2.
With EMX1 off-target (30 bp) with EMX1 sgRNA the Kd was 27.2 nM.
Work on EMX1 target (30 bp) with EMX1 sgRNA yielded a Kd of 10.9 nM.
Work on “VEGFA3 off-target (30 bp) with VEGFA3 sgRNA” yielded a Kd of 142 nM.
VEGFA3 target (30 bp) with VEGFA3 sgRNA showed a Kd of 49.6 nM.
